Results: paper doi:10.1101/2024.07.10.602929 (2024)
Where no end group is shown, it is not given here. The star is where a group is joined. Biotin = O=C1N[C@H]2[C@H](CS[C@H]2CCCCC(=O)*)N1

Experiments:
Assay in all cases: BLI
[1] = target: GABARAP (γ-aminobutyric acid type A receptor-associated protein) (human, UniProt O95166 1-117)
[2] = target: GABARAPL2 (human, UniProt P60520 1-117)
[3] = target: LC3A (human, UniProt Q9H492 1-121)
[4] = target: LC3B (human, UniProt Q9GZQ8 1-120)
[5] = target: 1 (human, UniProt Q9H0R8 1-117)
1, sequence (Q9H0R8 whole entry): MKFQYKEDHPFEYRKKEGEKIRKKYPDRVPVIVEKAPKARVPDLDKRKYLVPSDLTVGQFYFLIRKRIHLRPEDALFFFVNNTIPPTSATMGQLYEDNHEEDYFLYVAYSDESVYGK

GABARAPL2, sequence (P60520 whole entry): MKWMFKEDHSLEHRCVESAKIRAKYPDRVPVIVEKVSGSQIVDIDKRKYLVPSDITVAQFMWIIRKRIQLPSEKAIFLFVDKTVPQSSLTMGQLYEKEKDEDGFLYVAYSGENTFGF
GABARAP (γ-aminobutyric acid type A receptor-associated protein), sequence (O95166 whole entry): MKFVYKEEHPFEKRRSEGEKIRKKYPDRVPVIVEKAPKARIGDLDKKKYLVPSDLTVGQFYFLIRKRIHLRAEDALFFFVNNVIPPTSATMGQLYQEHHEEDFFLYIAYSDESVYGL

Binder | Kd [1] | Kd [2] | Kd [3] | Kd [4] | Kd [5]
Biotin-ISQKSDEEDFVKVED [PCM1 LIR peptide (pericentriolar material 1 protein residues 1954-1968), N-terminally biotinylated] | 3.7 µM | 15 µM | 118 µM | 369 µM | 
Biotin-ALTEDSIDDTFLPVPEYINQSVPK [EGFR LIR1 peptide (EGFR residues 1076–1099), N-terminally biotinylated] |  | 105 µM | 231 µM | 435 µM | 21.6 µM
Biotin-STAENAEYLRVAPQSSEFIGA [EGFR LIR2 peptide (EGFR residues 1190–1210), N-terminally biotinylated] | 304 µM | 146 µM | 648 µM | 1460 µM | 48 µM
